{"source": "paper PMC10758295", "about": "(Cell reports, 2023)", "binders": {"B1": {"name": "His6-EWSR1 (natural protein)", "chain": "MASTDYSTYSQAAAQQGYSAYTAQPTQGYAQTTQAYGQQSYGTYGQPTDVSYTQAQTTATYGQTAYATSYGQPPTGYTTPTAPQAYSQPVQGYGTGAYDTTTATVTTTQASYAAQSAYGTQPAYPAYGQQPAATAPTRPQDGNKPTETSQPQSSTGGYNQPSLGYGQSNYSYPQVPGSYPMQPVTAPPSYPPTSYSSTQPTSYDQSSYSQQNTYGQPSSYGQQSSYGQQSSYGQQPPTSYPPQTGSYSQAPSQYSQQSSSYGQQSSFRQDHPSSMGVYGQESGGFSGPGENRSMSGPDNRGRGRGGFDRGGMSRGGRGGGRGGMGSAGERGGFNKPGGPMDEGPDLDLGPPVDPDEDSDNSAIYVQGLNDSVTLDDLADFFKQCGVVKMNKRTGQPMIHIYLDKETGKPKGDATVSYEDPPTAKAAVEWFDGKDFQGSKLKVSLARKKPPMNSMRGGLPPREGRGMPPPLRGGPGGPGGPGGPMGRMGGRGGDRGGFPPRGPRGSRGNPSGGGNVQHRAGDWQCPNPGCGNQNFAWRTECNQCKAPKPEGFLPPPFPPPGGDRGRGGPGGMRGGRGGLMDRGGPGGMFRGGRGGDRGGFRGGRGMDRGGFGGGRRGGPGGPPGPLMEQMGGRRGGRGGPGKMDKGEHRQERRDRPY"}}, "biological_target": "CENP-A-H4 complex (UniProt P49450 1-140; P62805 1-103)", "sequence (P49450 whole entry, one chain of several)": "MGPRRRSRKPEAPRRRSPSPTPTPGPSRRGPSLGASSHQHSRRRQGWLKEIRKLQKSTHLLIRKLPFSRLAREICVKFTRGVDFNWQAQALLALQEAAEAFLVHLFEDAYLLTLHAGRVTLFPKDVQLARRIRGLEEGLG", "experiment": "native gel or EMSA", "data": [{"binder": "B1", "values": [{"measurement": "binding result", "value": "binds"}]}]}
